Results taken from patent publication US6680177B2, “Low molecular weight heparin assay, system and reagent therefor” (Cardiovascular Diagnostics, Inc., priority 2001, dated 2004).

B1: Abciximab (antibody, chains of the INN, looked up, V domains shown)
VH: EVQLQQSGTVLARPGASVKMSCEASGYTFTNYWMHWVKQRPGQGLEWIGAIYPGNSDTSYIQKFKGKAKLTAVTSTTSVYMELSSLTNEDSAVYYCTLYDGYYVFAYWGQGTLVTVSA
VL: EIVLTQSPVTLSVTPGDSVSLSCRASRDISNNLHWFQQTSHESPRLLIKYASQSMSGIPSRFSGSGSGTDFTLSINSVETEDFGMYFCQQTNSWPYTFGGGTKLEIK
modifications: Fab
notes: antiplatelet agent tested as interferent
B2: Alteplase (protein, UniProt P00750 36-562, looked up)
Tissue-type plasminogen …: SYQVICRDEKTQMIYQQHQSWLRPVLRSNRVEYCWCNSGRAQCHSVPVKSCSEPRCFNGGTCQQALYFSDFVCQCPEGFAGKCCEIDTRATCYEDQGISYRGTWSTAESGAECTNWNSSALAQKPYSGRRPDAIRLGLGNHNYCRNPDRDSKPWCYVFKAGKYSSEFCSTPACSEGNSDCYFGNGSAYRGTHSLTESGASCLPWNSMILIGKVYTAQNPSAQALGLGKHNYCRNPDGDAKPWCHVLKNRRLTWEYCDVPSCSTCGLRQYSQPQFRIKGGLFADIASHPWQAAIFAKHRRSPGERFLCGGILISSCWILSAAHCFQERFPPHHLTVILGRTYRVVPGEEEQKFEVEKYIVHKEFDDDTYDNDIALLQLKSDSSRCAQESSVVRTVCLPPADLQLPDWTECELSGYGKHEALSPFYSERLKEAHVRLYPSSRCTSQHLLNRTVTDNMLCAGDTRSGGPQANLHDACQGDSGGPLVCLNDGRMTLVGIISWGLGCGQKDVPGVYTKVTNYLDWIRDNMRP
modifications: alteplase
notes: fibrinolytic agent tested as interferent
B3: Tenecteplase (protein, UniProt P00750 36-562, looked up, variant T103N N117Q K296A H297A R298A R299A)
Tissue-type plasminogen …: SYQVICRDEKTQMIYQQHQSWLRPVLRSNRVEYCWCNSGRAQCHSVPVKSCSEPRCFNGGTCQQALYFSDFVCQCPEGFAGKCCEIDTRATCYEDQGISYRGNWSTAESGAECTNWQSSALAQKPYSGRRPDAIRLGLGNHNYCRNPDRDSKPWCYVFKAGKYSSEFCSTPACSEGNSDCYFGNGSAYRGTHSLTESGASCLPWNSMILIGKVYTAQNPSAQALGLGKHNYCRNPDGDAKPWCHVLKNRRLTWEYCDVPSCSTCGLRQYSQPQFRIKGGLFADIASHPWQAAIFAAAAASPGERFLCGGILISSCWILSAAHCFQERFPPHHLTVILGRTYRVVPGEEEQKFEVEKYIVHKEFDDDTYDNDIALLQLKSDSSRCAQESSVVRTVCLPPADLQLPDWTECELSGYGKHEALSPFYSERLKEAHVRLYPSSRCTSQHLLNRTVTDNMLCAGDTRSGGPQANLHDACQGDSGGPLVCLNDGRMTLVGIISWGLGCGQKDVPGVYTKVTNYLDWIRDNMRP
modifications: tenecteplase
notes: as for B2

System: citrated whole blood (CWB)
Assay: Interference testing for Rapidpoint ENOX test in citrated whole blood
Format: biochemical
Details: for EFFECT on ENOX test: CWB; for sensitivity of the ENOX test to the agent: in vitro, citrated whole blood

Molecule	EFFECT on ENOX test (0-3600 ng/ml)	sensitivity of the ENOX test to the agent	EFFECT on ENOX test (1000-3200 ng/ml)	EFFECT on ENOX test (0-10,000 ng/ml)
B1	No effect at 0-3600 ng/ml	insensitive		
B2		insensitive	No effect at 1000-3200 ng/ml	
B3		insensitive		No effect at 0-10,000 ng/ml
